This data set is described as follows: total protein half-life in vivo (active degradation + dilution); higher = more stable protein.
Where [1] appears, read: E. coli NCM3722 delta-clpP delta-lon delta-hslV, growth: N-lim chemostat, doubling time 6 h.
Where [2] appears, read: E. coli NCM3722 delta-clpP, growth: N-lim chemostat, doubling time 6 h.
Setting [3] is: E. coli NCM3722 delta-hslV, growth: N-lim chemostat, doubling time 6 h.
Where [4] appears, read: E. coli NCM3722 delta-smpB, growth: N-lim chemostat, doubling time 6 h.
The mark [5] stands for this setting: wild type E. coli NCM3722, growth: C-lim chemostat, doubling time 3 h.
Setting [6] is: wild type E. coli NCM3722, growth: C-lim chemostat, doubling time 6 h.
Setting [7] is: wild type E. coli NCM3722, growth: C-lim chemostat, doubling time 12 h.
Setting [8] is: wild type E. coli NCM3722, growth: N-lim chemostat, doubling time 12 h.
Setting [9] is: wild type E. coli NCM3722, growth: P-lim chemostat, doubling time 6 h.
[10] abbreviates: wild type E. coli NCM3722, growth: P-lim chemostat, doubling time 12 h.
Setting [11] is: E. coli NCM3722 delta-lon, growth: N-lim chemostat, doubling time 6 h.
Setting [12] is: wild type E. coli NCM3722, growth: N-lim chemostat, doubling time 6 h.

± gives the standard deviation of the averaged measurements.

Consider “MTTDQHQEILRTEGLSKFFPGVKALDNVDFSLRRGEIMALLGENGAGKSTLIKALTGVYHADRGTIWLEGQAISPKNTAHAQQLGIGTVYQEVNLLPNMSVADNLFIGREPKRFGLLRRKEMEKRATELMASYGFSLDVREPLNRFSVAMQQIVAICRAIDLSAKVLILDEPTASLDTQEVELLFDLMRQLRDRGVSLIFVTHFLDQVYQVSDRITVLRNGSFVGCRETCELPQIELVKMMLGRELDTHALQRAGRTLLSDKPVAAFKNYGKKGTIAPFDLEVRPGEIVGLAGLLGSGRTETAEVIFGIKPADSGTALIKGKPQNLRSPHQASVLGIGFCPEDRKTDGIIAAASVRENIILALQAQRGWLRPISRKEQQEIAERFIRQLGIRTPSTEQPIEFLSGGNQQKVLLSRWLLTRPQFLILDEPTRGIDVGAHAEIIRLIETLCADGLALLVISSELEELVGYADRVIIMRDRKQVAEIPLAELSVPAIMNAIAA [Q6BEX0]”, for which the “total protein half-life in vivo” value runs as follows: under setting [1], 4.28 h; under setting [2], 6.33 ± 1.2 h; under setting [3], 4.45 h; under setting [4], 5.51 h; under setting [5], 3 ± 0.35 h; under setting [6], 6.5 ± 0.63 h. The “total protein half-life in vivo” value is 10.7 ± 0.33 h under setting [7], 9.4 h under setting [8], 5.93 ± 0.44 h under setting [9] and 11 ± 1.1 h under setting [10].

As to “MSKPFKLNSAFKPSGDQPEAIRRLEEGLEDGLAHQTLLGVTGSGKTFTIANVIADLQRPTMVLAPNKTLAAQLYGEMKEFFPENAVEYFVSYYDYYQPEAYVPSSDTFIEKDASVNEHIEQMRLSATKAMLERRDVVVVASVSAIYGLGDPDLYLKMMLHLTVGMIIDQRAILRRLAELQYARNDQAFQRGTFRVRGEVIDIFPAESDDIALRVELFDEEVERLSLFDPLTGQIVSTIPRFTIYPKTHYVTPRERIVQAMEEIKEELAARRKVLLENNKLLEEQRLTQRTQFDLEMMNELGYCSGIENYSRFLSGRGPGEPPPTLFDYLPADGLLVVDESHVTIPQIGGMYRGDRARKETLVEYGFRLPSALDNRPLKFEEFEALAPQTIYVSATPGNYELEKSGGDVVDQVVRPTGLLDPIIEVRPVATQVDDLLSEIRQRAAINERVLVTTLTKRMAEDLTEYLEEHGERVRYLHSDIDTVERMEIIRDLRLGEFDVLVGINLLREGLDMPEVSLVAILDADKEGFLRSERSLIQTIGRAARNVNGKAILYGDKITPSMAKAIGETERRREKQQKYNEEHGITPQGLNKKVVDILALGQNIAKTKAKGRGKSRPIVEPDNVPMDMSPKALQQKIHELEGLMMQHAQNLEFEEAAQIRDQLHQLRELFIAAS [P0A8F8]”, the “total protein half-life in vivo” value under setting [1] came to 5.26 ± 0.16 h; the “total protein half-life in vivo” value under setting [2] was determined as 4.561 ± 0.016 h; the “total protein half-life in vivo” value under setting [3] stood at 2.99 ± 0.055 h; the “total protein half-life in vivo” value under setting [11] was found to be 3.39 ± 0.18 h; the “total protein half-life in vivo” value under setting [4] stood at 2.85 ± 0.065 h; the “total protein half-life in vivo” value under setting [5] was 2.44 ± 0.18 h. Besides, the “total protein half-life in vivo” value is, setting by setting: under setting [6], 4.02 ± 0.073 h; under setting [7], 6.348 ± 0.01 h; under setting [12], 2.96 ± 0.15 h; under setting [8], 4.85 ± 0.78 h; under setting [9], 3.67 ± 0.054 h; under setting [10], 5.85 ± 0.49 h.

As for “MSELNEKLATAWEGFTKGDWQNEVNVRDFIQKNYTPYEGDESFLAGATEATTTLWDKVMEGVKLENRTHAPVDFDTAVASTITSHDAGYINKQLEKIVGLQTEAPLKRALIPFGGIKMIEGSCKAYNRELDPMIKKIFTEYRKTHNQGVFDVYTPDILRCRKSGVLTGLPDAYGRGRIIGDYRRVALYGIDYLMKDKLAQFTSLQADLENGVNLEQTIRLREEIAEQHRALGQMKEMAAKYGYDISGPATNAQEAIQWTYFGYLAAVKSQNGAAMSFGRTSTFLDVYIERDLKAGKITEQEAQEMVDHLVMKLRMVRFLRTPEYDELFSGDPIWATESIGGMGLDGRTLVTKNSFRFLNTLYTMGPSPEPNMTILWSEKLPLNFKKFAAKVSIDTSSLQYENDDLMRPDFNNDDYAIACCVSPMIVGKQMQFFGARANLAKTMLYAINGGVDEKLKMQVGPKSEPIKGDVLNYDEVMERMDHFMDWLAKQYITALNIIHYMHDKYSYEASLMALHDRDVIRTMACGIAGLSVAADSLSAIKYAKVKPIRDEDGLAIDFEIEGEYPQFGNNDPRVDDLAVDLVERFMKKIQKLHTYRDAIPTQSVLTITSNVVYGKKTGNTPDGRRAGAPFGPGANPMHGRDQKGAVASLTSVAKLPFAYAKDGISYTFSIVPNALGKDDEVRKTNLAGLMDGYFHHEASIEGGQHLNVNVMNREMLLDAMENPEKYPQLTIRVSGYAVRFNSLTKEQQQDVITRTFTQSM”, the “total protein half-life in vivo” value under setting [1] stood at 4.8 ± 0.094 h; the “total protein half-life in vivo” value under setting [2] stood at 3.3 ± 0.053 h; the “total protein half-life in vivo” value under setting [3] was determined as 2.98 ± 0.12 h; the “total protein half-life in vivo” value under setting [11] was 3.71 ± 0.17 h; the “total protein half-life in vivo” value under setting [4] was determined as 2.58 ± 0.067 h; the “total protein half-life in vivo” value under setting [5] amounted to 2 ± 0.078 h. Also, the “total protein half-life in vivo” value is 3.04 ± 0.058 h under setting [6]; 4.18 ± 0.3 h under setting [7]; 3.04 ± 0.21 h under setting [12]; 4.452 ± 0.017 h under setting [8]; 3.36 ± 0.26 h under setting [9]; 6.13 ± 0.27 h under setting [10].
